# Source: patent publication US20120315277A1, “Compositions and Methods for the Therapy and Diagnosis of Influenza” (priority 2011, published 2012)
# Substitutions are numbered along the chain they refer to.
# T1: M2 protein of influenza A/Fort Worth/1/50 (H1N1), expressed on 293 cells (influenza A virus A/Fort Worth/1/50 …)
# T1 chain: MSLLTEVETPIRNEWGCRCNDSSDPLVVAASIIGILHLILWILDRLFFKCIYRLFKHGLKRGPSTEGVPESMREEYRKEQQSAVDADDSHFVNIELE
# B1: 3139_P23 (antibody, V domains shown)
# VH: QVQLQESGPRLVKPSESLSLTCTVSGGSISNSFWGWIRQPPGEGLEWIGYVYNSGNTKYNPSLKSRVTISRDTSKSQLYMKLRSVTAADTAVYYCARHDDASHGYSISWGHGTLVTVSS
# VL: DIQMTQSPSSLSASVGDRVTITCRASQTISTYLNWYQQKSGKAPKLLIYAASGLQSGVPSRFSGSGSGTDFTLTISSLQPEDFATYFCQQSYNTPLTFGQGTKVEIK
# B2: 3252_C13 (antibody, V domains shown)
# VH: QVQLQESGPGLVKPSETLSLTCTVSGASISSDYWSWIRLPPGKGLEWIGYIYNRGSTKYTPSLKSRVTISLDTAENQFSLRLRSVTAADTAIYYCARHVGGHTYGIDYWGQGTLVTVSS
# VL: DIQMTQSPSSLSASVGDRVTITCRASQSISNYLNWYQHKPGEAPKLLNYAASSLQSGVPSRFSASGSGTDFTLTISSLQPEDFATYYCQQSYNTPITFGQGTRLEIK
# B3: 3255_J06 (antibody, V domains shown)
# VH: B2 VH with I92V
# VL: B2 VL with T74S, S77G, Q100P
# B4: 3420_I23 (antibody, V domains shown)
# VH: QVQLQESGPGLVKPSETLSVTCKVSGDSISSYSWSWIRQPPGKGLEWVGYLYYSGSTKYNPSLKSRTTISVDTSTNQLSLKLSFVTAADTAVYFCARTGSESTTGYGMDVWGQGTTVTVSS
# VL: B2 VL with N31T, H38Q, E42K, N48I, Q55H, A64G, T72A, N93S, T94P
# B5: 3362_B11 (antibody, V domains shown)
# VH: QVQLQASGPGLVKPSETLSLTCTVSGDSITSGAYYWTWIRQHPGKGLEWIGYIYYSGNTYYNPSLKSRVTISLDTSKNQFSLKVNSVTAADTAVYYCARAASTSVLGYGMDVWGQGTTVTVSS
# VL: B2 VL with N31R, H38Q, K39E, E42K, N48V, A64G, N93S, I96L
# B6: 3248_P18 (antibody, V domains shown)
# VH: QVQLQESGPGLVKPSETLSLTCTVSGGSISAYHWSWIRQPPGKGLEWIGHIFDSGSTYYNPSLKSRVTISLDASKNQLSLRLTSVTASDTAIYYCARPLGSRYYYGMDVWGQGTTVTVSS
# VL: DIQMTQSPSSLSASVGDRVTITCRASQSISRYLNWYQQKPGKAPKLLIYGASTLQNGAPSRFSGSGSGTDFTLTISSLQPEDSATYLCQQSYSVPAFGGGTKVEVK
# B7: 3241_G23 (antibody, V domains shown)
# VH: QVQLQQSGPGLVKPSQTLSLTCTVSGGPVSGGGYSWNWIRQRPGQGLEWVGFMFHSGSPRYNPTLKSRITISVDTSKNLVSLKLSSVTAADTAVYFCARVGQMDKYYAMDVWGQGTTVTVSS
# VL: DIQMTQSPSSLSSSVGDRVTITCRASQSIGAYVNWYQQKAGKAPQVLIFGASNLQSGVPSRFSGSGSGTDFTLTISSLQPEDFATYFCQQTYSTPITFGQGTRLEIK
# B8: 3136_G05 (antibody, V domains shown)
# VH: QVQLQESGPGLVKPSETLSLTCSVSGGSISSDFWSWIRQPPGKGLEWIGYVYNRGSTKYSPSLKSRVTISADMSKNQFSLNMSSVTAADTAVYYCAKNGRSSTSWGIDVWGKGTTVTVSS
# VL: DIQMTQSPSSLSASVGDRLTITCRASQSISTYLHWYQQKPGKAPKLLIYAASSLQSGVPSRFSGSRSGTDFTLTISSLQPDDFATYYCQQSYSPPLTFGPGTKVDMK
# B9: 3260_D19 (antibody, V domains shown)
# VH: DMQLVESGGGLVPPGGSLRLSCAASGFSVSDNYINWVRQAPGKGLDWVSVFYSADRTSYADSVKGRFTVSSHDSKNTVYLQMNSLRAEDTAVYYCARVQKSYYGMDVWGQGTTVTVSS
# VL: GIQMTQSPSSLSASVGDRVTITCRASQSISRYLNWYLQKPGKAPKLLISGASSLQSGVPSRFSGTGSGTEFTLTISSLQPEDFATYYCQQTFSIPLFGQGTKVEIK
# B10: 3242_P05 (antibody, V domains shown)
# VH: B9 VH
# VL: B9 VL
# B11: TCN-031 Fab (Fab, V domains shown)
# VH: EVQLVESGGGLVQPGGSLRISCAASGFTVSSNYMSWVRQAPGKGLEWVSVIYSGGSTYYADSVKGRFSFSRDNSKNTVFLQMNSLRAEDTAVYYCARCLSRMRGYGLDVWGQGTTVTVS
# VL: DIQMTQSPSSLSASVGDRVTITCRTSQSISSYLNWYQQKPGKAPKLLIYAASSLQSGVPSRFSGSGSGTDFTLTISGLQPEDFATYYCQQSYSMPAFGQGTKLEIK
# B12: 3259_J21 (antibody, V domains shown)
# VH: QVQLQESGPRVVRPSETLSLTCTVSGGSISSYNWIWIRQPPGKGLEWIGHIYDYGRTFYNSSLQSRPTISVDASKNQLSLRLTSVTASDTAVYYCARPLGILHYYAMDLWGQGTTVTVSS
# VL: DIQMTQSPLSVSVSVGDRVTIACRASQSIDKFLNWYQQKPGKAPKLLIYGASNLHSGAPSRFSASGSGTDFTLTITNIQTEDFATYLCQQSFSVPAFGGGTKVEIK
# B13: 3245_O19 (antibody, V domains shown)
# VH: EVQLVESGGGLVQPGGSLRLSCTASGLSVSSTYMNWVRQAPGKGLEWVSVFYSETRTYYADSVKGRFTVSRHNSNNTLYLQMNSLRVEDTAVYYCARVQRLSYGMDVWGQGTTVTVSS
# VL: DIQMTQSPSSLSASVGDRVTITCRASQSISTYLNWYQKRPGKAPKLLVYGASTLQSGVPSRFSGSGSGTDFTLTIASLQPEDSATYYCQQTYSIPLFGQGTRLEIK
# B14: 3244_H04 (antibody, V domains shown)
# VH: B13 VH with V87A
# VL: B13 VL with T53S, T85V
# B15: 3253_P10 (antibody, V domains shown)
# VH: QVQLQESGPGLLKPSDTLALTCTVSGGSITSDYWSWIRQPPGRGLDWIGFFYNGGSTKYNPSLKSRVTISADTSKNQLSLKLTSVTAADTGVYYCARHDAKFSGSYYVASWGQGTRVTVSS
# VL: DIQMTQSPSSLSASVGDRVTISCRASQSISTYLNWYQQQPGKAPKVLISGATDLQSGVPSRFSGSGSGTDFTLTISSLQPEDFATYYCQQSYNTPLIFGQGTKLEIK
# B16: 3243_J07 (antibody, V domains shown)
# VH: B15 VH with A100V
# VL: B15 VL with D53N
# B17: 3244_I10 (antibody, V domains shown)
# VH: B15 VH
# VL: B15 VL with S49F, D53N
# B18: 21B15 (antibody, V domains shown)
# VH: QVQLQESGPGLVKPSETLSLTCTVSGSSISNYYWSWIRQSPGKGLEWIGFIYYGGNTKYNPSLKSRVTISQDTSKSQVSLTMSSVTAAESAVYFCARASCSGGYCILDYWGQGTLVTVS
# VL: DIQVTQSPSSLSASVGDRVTITCRASQNIYKYLNWYQQRPGKAPKGLISAASGLQSGVPSRFSGSGSGTDFTLTITSLQPEDFATYYCQQSYSPPLTFGGGTRVDIK
# B19: TCN-032 Fab (Fab, V domains shown)
# VH: B18 VH
# VL: B18 VL with V4M, D105E
# Columns and labels:
# [1] = biological target: M2 protein on influenza A/Puerto Rico/8/34 (H1N1) virus particles (influenza A virus A/Puerto Rico/8/34 (H1N1)) (UniProt P06821); experiment: FAb fragments on whole PR8 virus
# [2] = biological target: M2 protein on influenza A/Puerto Rico/8/34 (H1N1) virus particles (influenza A virus A/Puerto Rico/8/34 (H1N1)) (UniProt P06821); experiment: SPR, Fab on influenza virus (A/Puerto Rico/8/34)
# [3] = tested on: M2 (A/Hong Kong/483/97) expressed on CHO cells; type: binding, influenza A virus
# [4] = tested on: Influenza A (A/Puerto Rico/8/34) virus; type: binding, influenza A virus H1N1
# [5] = biological target: T2, M2 protein on influenza A/Puerto Rico/8/34 (H1N1) virus particles (influenza A virus A/Puerto Rico/8/34 …, UniProt P06821 1-97); experiment: FAb fragments on whole PR8 virus
# [6] = biological target: T2, M2 protein on influenza A/Puerto …; experiment: SPR, Fab on influenza virus (A/Puerto Rico/8/34)
# [7] = biological target: T1, M2 protein of influenza A/Fort …; experiment: cell staining images, 293-HEK cells stably expressing M2
Molecule,FACS M2-HK MFI [3],Virus ELISA OD A450 [4],other results
cH14C2 Fab,–,–,Kd [1]: 4 µM; koff [1]: 0.00286 s⁻¹; kon [1]: 500 M⁻¹ s⁻¹; Kd [2]: 4 µM; koff [2]: 0.0018 s⁻¹; kon [2]: 500 M⁻¹ s⁻¹
B1,110,1.02,–
B2,449,–,–
B3,442,–,–
B4,112,–,–
B5,218,1.83,–
B6,967,0.56,–
B7,1697,3.02,–
B8,109,–,–
B9,846,2.46,–
B10,596,0.50,–
B11,–,–,Kd [5]: 14 nM; koff [5]: 0.014 s⁻¹; kon [5]: 1e+06 M⁻¹ s⁻¹; Kd [6]: 14 nM; koff [6]: 0.014 s⁻¹; kon [6]: 1e+06 M⁻¹ s⁻¹
B12,1673,2.40,–
B13,919,3.51,–
B14,963,3.31,–
B15,43,0.50,–
B16,131,2.94,–
B17,434,3.01,–
B18,–,–,binding result [7]: binds
B19,–,–,Kd [5]: 3 nM; koff [5]: 0.0023 s⁻¹; kon [5]: 740000 M⁻¹ s⁻¹; Kd [6]: 3.2 nM; koff [6]: 0.0023 s⁻¹; kon [6]: 740000 M⁻¹ s⁻¹
